From patent publication EP4556905A1 (Agencia Estatal Consejo Superior De Investigaciones …, dated 2025)

B1: Human PHOX2B transcription factor fragment comprising 26 alanine residues (XS26) (other)
chain: GPGGPGGEPGKGGAAAAAAAAAAAAAAAAAAAAAAAAAAGGLAAAGGPGQGWAPGPGPITSIPDSLGGPFASVLSSLQRPNGAKAALVKSSMF
notes: C-terminal fragment of human PHOX2B (XS construct, 228-314 in wild-type numbering) with the polyAla tract expanded from 20 to 26 alanines (241-266); Made in E. coli as a thioredoxin-His6-TEV fusion and cleaved with TEV; 15N/13C-labelled for NMR; For microscopy a C315 mutant tagged with ATTO-488 or ATTO-565 was mixed 1:400-1:600 with the unlabelled protein; also called +6 Ala variant; expanded …

Legend:
[1] = target: Human PHOX2B transcription factor fragment comprising 26 alanine residues (XS26) (human) (UniProt Q99453); assay: 13C-HSQC NMR titration, 0.1 mM XS26, 1:1 molar ratio, 25°C
[2] = target: Human PHOX2B transcription factor fragment comprising 26 alanine residues (XS26) (human) (UniProt Q99453); assay: CACO NMR, 0.225 mM XS26 incubated 48 h at 25°C with 0.45 mM HSP70 (1:2)
[3] = target: the molecule itself; assay: 15N spin relaxation, overall correlation time, self-association
[4] = target: B1; assay: confocal fluorescence microscopy, colocalisation in condensates
[5] = target: the molecule itself; assay: 15N spin relaxation, self-association

Row | decrease of NMR signal intensity, polyAla moieties in disordered conformation [1] [%] | decrease of NMR signal intensity, polyAla tract in α-helical conformation [1] [%] | Molecule | binding result [5] | other results
1 | > 50 | < 20 | Human HSP72 (named HSP70) (from UniProt P54652 1-639) |  | decrease of the population of nascent disordered alanines (CACO signal intensity) [2]: 50%
2 | > 50 | < 40 | Human HSP90β (named HSP90) (from UniProt P08238 1-724) |  | 
3 |  |  | Human PHOX2B transcription factor fragment comprising 20 alanine residues (XS20) (other, Fragment of residues 228-314 of human PHOX2B, polyAla tract at 241-260; Made as a thioredoxin-His6-TEV fusion and cleaved with TEV; For microscopy a C315 mutant tagged with ATTO-488 or ATTO-565 was mixed 1:400-1:600 with the unlabelled protein; also called wild type PHOX2B fragment; wt PHOX2B (20 alanines)) GPGGPGGEPGKGGAAAAAAAAAAAAAAAAAAAAGGLAAAGGPGQGWAPGPGPITSIPDSLGGPFASVLSSLQRPNGAKAALVKSSMF |  | binding result [3]: binds; binding result [4]: binds
4 |  |  | B1 | binds | 
5 |  |  | Human PHOX2B transcription factor fragment comprising 23 alanine residues (XS23) (other, XS fragment of human PHOX2B with the polyAla tract expanded from 20 to 23 alanines; Made as a thioredoxin-His6-TEV fusion and cleaved with TEV; also called +3 Ala variant) GPGGPGGEPGKGGAAAAAAAAAAAAAAAAAAAAAAAGGLAAAGGPGQGWAPGPGPITSIPDSLGGPFASVLSSLQRPNGAKAALVKSSMF | binds | 
